US20140242093A1, “METHODS AND COMPOSITIONS FOR MODULATING THE INNATE IMMUNE RESPONSE AND/OR MYOGENESIS IN A MAMMALIAN SUBJECT” (FRED HUTCHINSON CANCER RESEARCH CENTER, priority 2011, published 2014)
Values joined by “and” are separate entries in the source; they are usually repeats but may differ in a detail not shown here. Equal entries are not always repeated.

Assays:
[1] = tested on: Cultured control human myoblasts; experiment: Beta-defensin 3 and innate immune response, real-time qPCR of IFIH1, ISG20, DEFB103; assay type: cell-based
Procedure: Cultured control human myoblasts were grown to 80% confluence and infected with equivalent titers of lenti-GFP, lenti-DUX4-s and lenti-DUX4-fl in growth media supplemented with 8 μg/mL polybrene. Expression of innate immune responsive genes including IFIH1 (MDA5), ISG20 and DEFB103 were assessed by real-time qPCR as previously described at 24 hours (primer sequences below). For conditioned media, cells were infected with lenti-DUX4-fl for 12 hours, thoroughly washed 3 times with PBS and switched to fresh growth media to condition for 12 hours. Control conditioned media was produced from cells not infected with any lentivirus. Myoblasts were infected with lenti-GFP in either control conditioned media, lenti-DUX4-fl conditioned media or regular growth media supplemented with 1 μM human β-defensin 3 (Peptides International, Louisville, Ky.). Expression of innate immune responsive genes were examined after 24 hours.

[2] = tested on: Cultured control myoblasts; experiment: Beta-defensin 3 on myoblasts in growth media, expression arrays and MSTN qPCR; assay type: cell-based, human
Procedure: Cultured control myoblasts were grown at 50% confluence and treated with 1 μM human β-defensin 3. Equivalent volume of vehicle (water) was added to myoblasts for the control condition. Quadruplicate samples of control- and DEFB103-treated myoblasts were assessed for global expression changes on HumanHT-12 v4 Expression BeadChip Whole Genome arrays and analyzed as described in main methods. Differential expression of myostatin (MSTN) was confirmed by real-time qPCR.

[3] = tested on: Cultured primary muscle cells; experiment: Beta-defensin 3 and myotube formation, immunostaining for myosin heavy chain; assay type: cell-based; details: 0.5 uM, 72 hours in differentiation medium
Procedure: Cultured primary muscle cells were cultured in differentiation medium for 72 hours in the presence or absence of 0.5 uM Human β-defensin 3.

[4] = tested on: control myoblasts in differentiation media
Procedure: Cultured control myoblasts were grown to confluence and switched to differentiation media (as described in Snider et al., 2010). 24 hours later, media was refreshed and either supplemented with 1 μM human β-defensin 3 or equivalent volume of water. Media was refreshed again at 48 hours. Cells were differentiated for a total of 72 hours. Quadruplicate samples were analyzed by expression microarrays as described above.

B1: DEFB103: human β-defensin 3 peptide (Peptides International), polypeptide SEQ ID NO:178 (peptide, listed as Homo sapiens)
chain: MRIHYLLFALLFLFLVPVPGHGGIINTLQKYYCRVRGGRCAVLSCLPKEEQIGKCSTRGRKCCRRKK
- induction of innate immune genes by lenti-GFP ([1]; RT-qPCR of IFIH1 and ISG20, FIG. 8): inhibited the induction of the innate immune response to lenti-GFP
- viral entry and transduction ([1]; copies of viral integrants and GFP mRNA): did not prevent viral entry and transduction
- mRNA for myostatin ([2]; RT-qPCR, myoblasts): increased the mRNA for myostatin
- gene expression changes in myoblasts ([2]; expression arrays, 2-fold change threshold): did not alter the expression of any genes
- myostatin upregulation ([2]; expression arrays, myoblasts): approximately 50%
- muscle cell fusion and myosin heavy chain expression [3]: inhibits muscle cell fusion and expression of myosin heavy chain
- log2 FC defMT/MT, CYP2J2 [4]: −1.05
- expression of muscle differentiation genes (ACTA1, CKM, CASQ2, MYH2, TNNT3) ([4]; RT-qPCR, FIG. 11): inhibits the expression of genes necessary for normal muscle differentiation
- number of genes with reduced expression ([4]; differentiating muscle cells vs untreated control): 44 genes
- log2 FC defMT/MT, ACTA1 ([4]; gene ACTA1, log2 ratio of expression in DEFB103 treated muscle cells compared to control muscle cells, differentiation media): −2.65
- log2 FC defMT/MT, AIF1L ([4]; gene AIF1L, DEFB103 treated vs control differentiating muscle cells): −1.16
- log2 FC defMT/MT, AKR1C2 ([4]; gene AKR1C2, DEFB103 treated vs control differentiating muscle cells): 1.41
- log2 FC defMT/MT, ANGPTL4 ([4]; gene ANGPTL4, DEFB103 treated vs control differentiating muscle cells): 1.21
- log2 FC defMT/MT, ARPP-21 ([4]; gene ARPP-21, DEFB103 treated vs control differentiating muscle cells): −1.06
- log2 FC defMT/MT, ATP2A2 ([4]; gene ATP2A2, DEFB103 treated vs control differentiating muscle cells): −1.04
- log2 FC defMT/MT, CACNG1 ([4]; gene CACNG1, DEFB103 treated vs control differentiating muscle cells): −1.58
- log2 FC defMT/MT, CASQ2 ([4]; gene CASQ2, DEFB103 treated vs control differentiating muscle cells): −2.00
- log2 FC defMT/MT, CKB ([4]; gene CKB, DEFB103 treated vs control differentiating muscle cells): −1.16
- log2 FC defMT/MT, CKM ([4]; gene CKM, DEFB103 treated vs control differentiating muscle cells): −1.90
- log2 FC defMT/MT, CTGF ([4]; gene CTGF, DEFB103 treated vs control differentiating muscle cells): −1.12
- log2 FC defMT/MT, DKK1 ([4]; gene DKK1, DEFB103 treated vs control differentiating muscle cells): 1.22
- log2 FC defMT/MT, ENO3 ([4]; gene ENO3 (two array entries), DEFB103 treated vs control differentiating muscle cells): −1.51 and −1.47
- log2 FC defMT/MT, FOLR1 ([4]; gene FOLR1 (two array entries), DEFB103 treated vs control differentiating muscle cells): −1.10 and −1.03
- log2 FC defMT/MT, HBEGF ([4]; gene HBEGF, DEFB103 treated vs control differentiating muscle cells): −1.10
- log2 FC defMT/MT, HES6 ([4]; gene HES6, DEFB103 treated vs control differentiating muscle cells): −1.24
- log2 FC defMT/MT, HFE2 ([4]; gene HFE2, DEFB103 treated vs control differentiating muscle cells): −1.04
- log2 FC defMT/MT, HMOX1 ([4]; gene HMOX1, DEFB103 treated vs control differentiating muscle cells): 1.66
- log2 FC defMT/MT, HRC ([4]; gene HRC, DEFB103 treated vs control differentiating muscle cells): −1.40
- log2 FC defMT/MT, IL32 ([4]; gene IL32, DEFB103 treated vs control differentiating muscle cells): −1.03
- log2 FC defMT/MT, LMCD1 ([4]; gene LMCD1, DEFB103 treated vs control differentiating muscle cells): −1.03
- log2 FC defMT/MT, LOC389827 ([4]; gene LOC389827 (two array entries), DEFB103 treated vs control differentiating muscle cells): −1.48 and −1.38
- log2 FC defMT/MT, MME ([4]; gene MME, DEFB103 treated vs control differentiating muscle cells): 1.27
- log2 FC defMT/MT, MT1X ([4]; gene MT1X, DEFB103 treated vs control differentiating muscle cells): 1.65
- log2 FC defMT/MT, MYBPH ([4]; gene MYBPH, DEFB103 treated vs control differentiating muscle cells): −1.49
- log2 FC defMT/MT, MYH3 ([4]; gene MYH3, DEFB103 treated vs control differentiating muscle cells): −2.20
- log2 FC defMT/MT, MYH7 ([4]; gene MYH7, DEFB103 treated vs control differentiating muscle cells): −1.73
- log2 FC defMT/MT, MYH8 ([4]; gene MYH8, DEFB103 treated vs control differentiating muscle cells): −2.62
- log2 FC defMT/MT, MYL1 ([4]; gene MYL1 (two array entries), DEFB103 treated vs control differentiating muscle cells): −1.18 and −1.11
- log2 FC defMT/MT, MYL6B ([4]; gene MYL6B, DEFB103 treated vs control differentiating muscle cells): −1.00
- log2 FC defMT/MT, MYLPF ([4]; gene MYLPF, DEFB103 treated vs control differentiating muscle cells): −1.53
- log2 FC defMT/MT, MYOM1 ([4]; gene MYOM1, DEFB103 treated vs control differentiating muscle cells): −1.20
- log2 FC defMT/MT, NDRG1 ([4]; gene NDRG1, DEFB103 treated vs control differentiating muscle cells): 1.01
- log2 FC defMT/MT, PLIN2 ([4]; gene PLIN2 (two array entries), DEFB103 treated vs control differentiating muscle cells): 1.61 and 1.79
- log2 FC defMT/MT, PRAGMIN ([4]; gene PRAGMIN, DEFB103 treated vs control differentiating muscle cells): −1.10
- log2 FC defMT/MT, RASSF4 ([4]; gene RASSF4, DEFB103 treated vs control differentiating muscle cells): −1.03
- log2 FC defMT/MT, SMPX ([4]; gene SMPX, DEFB103 treated vs control differentiating muscle cells): −1.76
- log2 FC defMT/MT, SMYD1 ([4]; gene SMYD1, DEFB103 treated vs control differentiating muscle cells): −1.07
- log2 FC defMT/MT, TNNC1 ([4]; gene TNNC1, DEFB103 treated vs control differentiating muscle cells): −1.45
- log2 FC defMT/MT, TNNC2 ([4]; gene TNNC2, DEFB103 treated vs control differentiating muscle cells): −1.49
- log2 FC defMT/MT, TNNT1 ([4]; gene TNNT1, DEFB103 treated vs control differentiating muscle cells): −1.00
- log2 FC defMT/MT, TNNT3 ([4]; gene TNNT3 (two array entries), DEFB103 treated vs control differentiating muscle cells): −1.55 and −1.52
- log2 FC defMT/MT, TPM2 ([4]; gene TPM2, DEFB103 treated vs control differentiating muscle cells): −1.41
- log2 FC defMT/MT, VASH2 ([4]; gene VASH2, DEFB103 treated vs control differentiating muscle cells): −1.22
- log2 FC defMT/MT, ZFP106 ([4]; gene ZFP106, DEFB103 treated vs control differentiating muscle cells): −1.09
